Assay results taken from the RNAGym collection of RNA variant scans (doi:10.1093/molbev/msab373).

B1: Azoarcus group I ribozyme (parent)
chain: GUGCCUUGCGCCGGGAAACCACGCAAGGGAUGGUGUCAAAUUCGGCGAAACCUAAGCGCCCGCCCGGGCGUAUGGCAACGCCGAGCCAAGCUUCGGCGCCUGCGCCGAUGAAGGUGUAGAGACUAGACGGCACCCACCUAAGGCAAACGCUAUGGUGAAGGCAUAGUCCAGGGAGUGGCGAAAGUCACACAAACCGG

Variants of: B1
Assay: reverse-splicing fitness (ratio to wild type); higher = more active; in vitro selection; Mg2+ level not given
In short: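 An in vitro group I ribozyme library with randomized positions was T7-transcribed and gel-purified. In triplicate, 10 pmol RNA in EPPS pH 7.5 was reacted with 50 pmoles of a 30-nt RNA substrate for 1 h at 37 °C across several added MgCl2 levels (1–48 mM), then stopped with EDTA. Products were reverse transcribed from a substrate-complementary primer, PCR-amplified and sequenced (HiSeq 4000). Fitness is a variant's read proportion after selection over that before, normalised to wild type.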

Variant	reverse-splicing fitness
C82U A111U A145U C169A U176G	0.00592
C82U A111U A145U C169A U176A	0.00935
C82U A111U A145U C169A U176C	0.00904
C82U A111U A145U C150G C169U U176C	0.0107
C82U A111U A145U C150G C169U U176A	0.00893
C82U A111U A145U C150G C169U U176G	0.00616
C82U A120C A145C U176G	0.00964
C82U A120C A145C U176A	0.0438
C82U A120C A145C U176C	0.0651
C82U A120C A145G C150A C169U U176G	0.0043
C82U A120C A145G C150A C169U U176A	0.0136
C82U A120C A145G C150A C169U U176C	0.0166
C82U A111U C150U C169G U176G	0.00639
C82U A111U C150U C169G U176A	0.013
C82U A111U C150U C169G U176C	0.0162
C82U A120C A145U U176A	0.0458
C82U A120C A145U U176C	0.0723
C82U A120C A145U U176G	0.0114
C82U A120C C150U C169A U176G	0.00426
C82U A120C C150U C169A U176C	0.0107
C82U A120C C150U C169A U176A	0.0158
C82U A111U A145U C169U U176G	0.00446
C82U A111U A145U C169U U176A	0.0125
C82U A111U A145U C169U U176C	0.0127

Variant	reverse-splicing fitness
C82U A111U A145U C150U	0.183
C82U A120C A145U C150U C169A U176G	0.00423
C82U A120C A145U C150U C169A U176A	0.0108
C82U A120C A145U C150U C169A U176C	0.00582
C82U A120C A145G C150U U176G	0.00907
C82U A120C A145G C150U U176C	0.0637
C82U A120C A145G C150U U176A	0.0355
C82U A120C A145C C150G U176G	0.00307
C82U A120C A145C C150G U176A	0.00639
C82U A120C A145C C150G U176C	0.0126
C82U A120C A145C C150U C169G U176G	0.00398
C82U A120C A145C C150U C169G U176A	0.0142
C82U A120C A145C C150U C169G U176C	0.00645
C82U A120C A145C C150A C169G U176A	0.0162
C82U A120C A145C C150A C169G U176G	0.00448
C82U A120C A145C C150A C169G U176C	0.00772
C82U A120C A145G C150G U176C	0.0157
C82U A120C A145G C150G U176G	0.00605
C82U A120C A145G C150G U176A	0.00924
C82U A120C A145C C150U C169A U176A	0.00715
C82U A120C A145C C150U C169A U176C	0.00498
C82U A120C A145C C150U C169A U176G	0.00409
C82U A120C A145U C150A C169G U176C	0.0081
C82U A120C A145U C150A C169G U176A	0.00898

Variant	reverse-splicing fitness
C82U A120C A145U C150A C169G U176G	0.00397
C82U A111U C169U U176A	0.0149
C82U A111U C169U U176G	0.00559
C82U A111U C169U U176C	0.013
C82U A120C C150G U176G	0.00299
C82U A120C C150G U176A	0.00635
C82U A120C C150G U176C	0.0118
C82U A120C A145U C169G	0.00567
C82U A120C A145U C169U	0.0193
C82U A120C A145U C169A	0.00492
C82U A120C C150G C169U U176A	0.00844
C82U A120C C150G C169U U176C	0.0136
C82U A120C C150G C169U U176G	0.00422
C82U A120C A145G C150A U176A	0.0152
C82U A120C A145G C150A U176C	0.0295
C82U A120C A145G C150A U176G	0.00716
C82U A120C A145C C150A C169U U176A	0.0146
C82U A120C A145C C150A C169U U176C	0.00799
C82U A120C A145C C150A C169U U176G	0.00376
C82U A120C A145U C150U U176G	0.00795
C82U A120C A145U C150U U176C	0.0537
C82U A120C A145U C150U U176A	0.0328
C82U A120C A145C C150G C169U U176A	0.00992
C82U A120C A145C C150G C169U U176C	0.00991

Variant	reverse-splicing fitness
C82U A120C A145C C150G C169U U176G	0.00403
C82U A120C A145U C150G C169G U176C	0.00491
C82U A120C A145U C150G C169G U176G	0.00365
C82U A120C A145U C150G C169G U176A	0.00652
C82U A111U A145U C150U U176G	0.0202
C82U A111U A145U C150U U176C	0.103
C82U A111U A145U C150U U176A	0.0674
C82U A120C C150G C169A U176G	0.00606
C82U A120C C150G C169A U176A	0.0104
C82U A120C C150G C169A U176C	0.00991
C82U A120C A145C C150G	0.0204
C82U A120C A145C C150U	0.0393
C82U A120C A145C C150A	0.0114
C82U A111U C150U C169U U176A	0.0149
C82U A111U C150U C169U U176C	0.0152
C82U A111U C150U C169U U176G	0.00625
C82U A111U C150A C169U U176G	0.0075
C82U A111U C150A C169U U176A	0.0198
C82U A111U C150A C169U U176C	0.0152
C82U A120C A145G	0.169
C82U A120C A145U	0.155
C82U A120C A145C	0.149
C82U A120C A145C C150U U176C	0.0218
C82U A120C A145C C150U U176A	0.0173

Variant	reverse-splicing fitness
C82U A120C A145C C150U U176G	0.00608
C82U A111U A145U C150U C169A	0.00818
C82U A111U A145U C150U C169G	0.00898
C82U A111U A145U C150U C169U	0.0104
C82U A120C C150A C169G U176A	0.0156
C82U A120C C150A C169G U176C	0.0164
C82U A120C C150A C169G U176G	0.00373
C82U A120C A145U C150A C169U	0.00769
C82U A120C A145U C150A C169A	0.00683
C82U A120C A145U C150A C169G	0.00588
C82U A120C A145U C150G C169A U176G	0.00423
C82U A120C A145U C150G C169A U176C	0.00716
C82U A120C A145U C150G C169A U176A	0.00958
C82U A120C C150G C169G	0.00683
C82U A120C C150G C169A	0.00883
C82U A120C C150G C169U	0.00921
C82U A120C A145G C169U U176C	0.0171
C82U A120C A145G C169U U176A	0.0177
C82U A120C A145G C169U U176G	0.00344
C82U A120C A145U C150U	0.109
C82U A120C A145U C150G	0.0217
C82U A120C A145U C150A	0.021
C82U A111U C150A C169A U176G	0.00696
C82U A111U C150A C169A U176A	0.0195

Variant	reverse-splicing fitness
C82U A111U C150A C169A U176C	0.0168
C82U A120C A145G C169U	0.0217
C82U A120C A145G C169G	0.00711
C82U A120C A145G C169A	0.00815
C82U A120C A145G C150G C169A U176G	0.00772
C82U A120C A145G C150G C169A U176C	0.0131
C82U A120C A145G C150G C169A U176A	0.0124
C82U A111U A145U C150U C169G U176A	0.0107
C82U A111U A145U C150U C169G U176G	0.00583
C82U A111U A145U C150U C169G U176C	0.0127
C82U A111U A145U U176G	0.0313
C82U A111U A145U U176C	0.154
C82U A111U A145U U176A	0.112
C82U A111U C150A C169A	0.00982
C82U A111U C150A C169U	0.0133
C82U A111U C150A C169G	0.00941
C82U A120C A145C C169G	0.00713
C82U A120C A145C C169U	0.0225
C82U A120C A145C C169A	0.00538
C82U A120C A145C C169G U176G	0.00341
C82U A120C A145C C169G U176A	0.0129
C82U A120C A145C C169G U176C	0.00783
C82U A111U C150U C169A U176G	0.00643
C82U A111U C150U C169A U176A	0.0138

Variant	reverse-splicing fitness
C82U A111U C150U C169A U176C	0.0125
C82U A111U A145U C150G U176A	0.0103
C82U A111U A145U C150G U176G	0.00449
C82U A111U A145U C150G U176C	0.019
C82U A120C C150A U176G	0.00583
C82U A120C C150A U176C	0.0193
C82U A120C C150A U176A	0.0163
C82U A120C A145C C150G C169U	0.0107
C82U A120C A145C C150G C169A	0.00723
C82U A120C A145C C150G C169G	0.00584
C82U A111U C150U C169G	0.00892
C82U A111U C150U C169U	0.0102
C82U A111U C150U C169A	0.00856
C82U A120C A145C C150G C169G U176A	0.00773
C82U A120C A145C C150G C169G U176C	0.00518
C82U A120C A145C C150G C169G U176G	0.00305
C82U A111U A145U C169G U176C	0.0101
C82U A111U A145U C169G U176G	0.0053
C82U A111U A145U C169G U176A	0.0101
C82U A120C A145U C150A C169A U176C	0.00669
C82U A120C A145U C150A C169A U176G	0.00386
C82U A120C A145U C150A C169A U176A	0.0094
C82U A111U C150U U176A	0.0519
